B1: APBB1IP (parent)
chain: PPEPLSQVSMWDQRWQDHQPLLPI

Variants of: B1
Assay: protein stability index of a GFP-peptide fusion (GPS, HEK-293T) (PSI 1-6); higher = more stable
Settings: c terminus: a fixed tail appended
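Note: lentivirally expressed fusions sorted by FACS into six bins by GFP to DsRed ratio, PSI derived from sequencing read proportions per bin multiplied by bin number.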

Protein stability index of substitutions, site by site:
P4: L 2.54; M 2.79; N 2.93; Q 3.34; R 2.55; S 2.61; T 3.1; V 2.61; W 2.3; Y 2.87
L5: A 3.74; C 3.75; D 3.58; E 3.57; F 3; G 3.05; H 3.54; I 2.72; K 2.71; M 2.88; N 3.31; P 3.88; Q 3.53; R 3.62; S 3.26; T 3.19; V 2.99; W 2.2; Y 2.71
S6: A 3.09; C 2.46; D 3.45; E 3.15; F 2.23; G 2.9; H 2.71; I 2.71; K 2.81; L 2.85; M 2.82; N 2.93; P 3.65; Q 3.28; R 3.36; T 2.76; V 2.73; Y 2.09
Q7: A 3.47; C 3.13; D 2.97; E 3.56; F 2.95; G 3.25; H 3.61; I 3.07; K 2.34; L 2.85; M 2.74; N 3.14; P 3.25; R 2.93; S 2.81; T 3.3; V 3.33; W 2.05; Y 2.27
V8: A 3.02; C 2.22; D 4.03; E 3.48; F 2.51; G 3.38; H 3.21; I 3.25; K 3.25; L 2.77; M 3.22; N 3.36; P 3.12; Q 2.9; R 2.83; S 3.52; T 2.9; W 2.21; Y 2.57
S9: A 3.4; C 2.34; D 3.55; E 3.56; F 2.95; G 3.35; H 3.22; I 2.86; K 3.09; L 2.84; M 3.27; N 3.25; P 3.16; Q 3.28; R 3.27; T 2.99; V 3.35; W 2.62; Y 2.57
M10: A 3.52; C 3.52; D 4.12; E 3.98; F 2.94; G 3.3; H 3.42; I 2.79; K 2.92; L 3.16; N 3.54; P 3.87; Q 3.2; R 3.37; S 3.35; T 2.87; V 3.36; W 3.12; Y 2.51
W11: A 4.11; C 3.16; D 4.4; E 4.18; F 3.55; G 4.18; H 3.83; I 3.1; L 3.77; M 3.57; N 4.06; P 3.08; Q 4.25; R 3.4; S 4.04; T 3.73; V 3.9; Y 3.51
D12: A 2.64; C 2.34; E 2.64; F 2.13; G 2.15; H 2.6; I 2.48; K 3.37; L 2.22; M 2.33; N 2.82; P 2.89; Q 2.11; R 2.9; S 2.73; T 3.07; V 2.23; W 1.85; Y 2.31
Q13: A 2.54; C 2.56; D 3.51; E 3.56; F 2.4; G 2.63; H 2.79

From the supplement of paper PMC10567573
